The values that follow come from patent US11648295B2, “Methods of treating diseases resulting from a maladapted stress response” (Cortene Inc., priority 2016, dated 2023).

No end group written: not given here.

Assay [1] addresses CRFR1 (Homo sapiens, UniProt P34998). The assay is described as follows: EC50, nmol (% of Emax) | CRFR1. The source says: (§1) Table printed on a drawing sheet, FIGURE 10
(§2) Title: Pharmacokinetic Parameters
Head of the field: EC50, nmol (% of Emax) | CRFR1
(§3) Footnotes: FIGURE 10: Effect of maximum or steady state plasma concentrations (Cmax or Css) of various CRFR2 agonists (CT38, SCP or Ucn2), dosed by subcutaneous bolus (triangles) or intravenous infusion (circles), on the maximum heart rate (HRmax) in healthy subjects (solid lines) or stable congestive heart failure patients (dashed lines). The table provides comparative pharmacokinetic parameters for the CRFR2 agonists.
(§4) That is, for strongly potent CRFR2 agonists and relative intermediate plasma concentrations, the loss of the ability to induce a heart rate increase via continuous dosing, was driven by the duration of dosing, and appeared to occur with different selective CRFR2 agonists (e.g., Ucn2, stresscopin), irrespective of the condition of the human subject.
(§5) First copying reader's note: Each EC50 cell holds the EC50 in nmol with the % of Emax in brackets after it.
Where the first naming reader finds the target: head: EC50, nmol (% of Emax) | CRFR1

The target of assay [2] is T1, CRFR2 (Homo sapiens, UniProt Q13324).
T1 sequence (Q13324 whole entry, looked up): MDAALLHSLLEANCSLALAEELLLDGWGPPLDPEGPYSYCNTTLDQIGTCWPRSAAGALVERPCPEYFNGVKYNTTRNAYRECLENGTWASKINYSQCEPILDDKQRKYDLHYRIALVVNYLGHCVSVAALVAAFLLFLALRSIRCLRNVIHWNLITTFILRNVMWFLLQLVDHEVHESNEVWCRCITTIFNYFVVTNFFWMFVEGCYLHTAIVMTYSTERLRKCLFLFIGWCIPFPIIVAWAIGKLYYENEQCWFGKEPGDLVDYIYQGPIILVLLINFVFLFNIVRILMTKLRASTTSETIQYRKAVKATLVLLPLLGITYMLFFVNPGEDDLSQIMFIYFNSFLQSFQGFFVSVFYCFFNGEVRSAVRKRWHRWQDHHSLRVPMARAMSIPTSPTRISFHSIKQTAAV
The assay is described as follows: EC50, nmol (% of Emax) | CRFR2.
Excerpt: as §1, §2
Head of the field: EC50, nmol (% of Emax) | CRFR2
as §3, §4, §5
Where the first naming reader finds the target: head: EC50, nmol (% of Emax) | CRFR2

Assay [3] concerns stable congestive heart failure patients. Particulars: escalating i.v. infusion over 3 hours; cited from earlier work.
The target in assay [4] is T1, CRFR2. The assay is described as follows: in vitro potency / binding potential for CRFR2 (table of FIG. 10). Format: biochemical.
Assay [5] deals with T2, CRFR1 (Homo sapiens, UniProt P34998).
T2 sequence (P34998 24-415): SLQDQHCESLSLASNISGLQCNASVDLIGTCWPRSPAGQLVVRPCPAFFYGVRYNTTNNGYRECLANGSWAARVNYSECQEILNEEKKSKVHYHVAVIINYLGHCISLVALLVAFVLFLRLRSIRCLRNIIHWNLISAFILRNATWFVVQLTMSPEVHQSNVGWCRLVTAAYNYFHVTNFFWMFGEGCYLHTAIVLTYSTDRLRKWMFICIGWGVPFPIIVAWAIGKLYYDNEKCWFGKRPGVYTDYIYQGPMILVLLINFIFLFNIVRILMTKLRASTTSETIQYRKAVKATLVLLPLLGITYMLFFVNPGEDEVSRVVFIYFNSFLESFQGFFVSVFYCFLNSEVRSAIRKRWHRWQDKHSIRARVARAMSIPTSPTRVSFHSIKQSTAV
As to the kind of experiment: in vitro binding potential for CRFR1 (table of FIG. 10). Type of assay: biochemical.

Consider “Ucn3: endogenous CRFR2-selective agonist peptide, used as a proxy for SCP (FTLSLDVPTNIMNLLFNIAKAKNLRAQAAANAHLMAQI) [listing 1 of 2 here]”, for which the “EC50, nmol (% of Emax) | CRFR1” value in the assay with CRFR1 [1] was > 1000 (10) nmol (% of Emax). Also, the “EC50, nmol (% of Emax) | CRFR2” value in the assay with CRFR2 [2] is given as > 100 (60) nmol (% of Emax).
As to “stresscopin (FTLSLDVPTNIMNLLFNIAKAKNLRAQAAANAHLMAQI; ends and bridges not checked; UniProt Q969E3 120-157, looked up)”, in assay [3], the “pattern of effect on heart rate versus Ucn2” value is “very similar”.
“Ucn3: endogenous CRFR2-selective agonist peptide, used as a proxy for SCP (FTLSLDVPTNIMNLLFNIAKAKNLRAQAAANAHLMAQI) [listing 2 of 2 here]”: the “in vitro binding potential for CRFR2” value with CRFR2 [4] is “strong binding potential for CRFR2 (maximal, at low concentrations)”. In the assay with CRFR1 [5], the “in vitro binding potential for CRFR1” value is given as “weak binding potential for CRFR1 (minimal, at moderate concentrations)”.
